Values of other authors as cited in article PMC5408189.

Biological target: integrin α5β1 (Homo sapiens) (UniProt P08648)
Assay: surface plasmon resonance

UniProt P08648, sequence (P08648 42-1049, chain 1 of 2): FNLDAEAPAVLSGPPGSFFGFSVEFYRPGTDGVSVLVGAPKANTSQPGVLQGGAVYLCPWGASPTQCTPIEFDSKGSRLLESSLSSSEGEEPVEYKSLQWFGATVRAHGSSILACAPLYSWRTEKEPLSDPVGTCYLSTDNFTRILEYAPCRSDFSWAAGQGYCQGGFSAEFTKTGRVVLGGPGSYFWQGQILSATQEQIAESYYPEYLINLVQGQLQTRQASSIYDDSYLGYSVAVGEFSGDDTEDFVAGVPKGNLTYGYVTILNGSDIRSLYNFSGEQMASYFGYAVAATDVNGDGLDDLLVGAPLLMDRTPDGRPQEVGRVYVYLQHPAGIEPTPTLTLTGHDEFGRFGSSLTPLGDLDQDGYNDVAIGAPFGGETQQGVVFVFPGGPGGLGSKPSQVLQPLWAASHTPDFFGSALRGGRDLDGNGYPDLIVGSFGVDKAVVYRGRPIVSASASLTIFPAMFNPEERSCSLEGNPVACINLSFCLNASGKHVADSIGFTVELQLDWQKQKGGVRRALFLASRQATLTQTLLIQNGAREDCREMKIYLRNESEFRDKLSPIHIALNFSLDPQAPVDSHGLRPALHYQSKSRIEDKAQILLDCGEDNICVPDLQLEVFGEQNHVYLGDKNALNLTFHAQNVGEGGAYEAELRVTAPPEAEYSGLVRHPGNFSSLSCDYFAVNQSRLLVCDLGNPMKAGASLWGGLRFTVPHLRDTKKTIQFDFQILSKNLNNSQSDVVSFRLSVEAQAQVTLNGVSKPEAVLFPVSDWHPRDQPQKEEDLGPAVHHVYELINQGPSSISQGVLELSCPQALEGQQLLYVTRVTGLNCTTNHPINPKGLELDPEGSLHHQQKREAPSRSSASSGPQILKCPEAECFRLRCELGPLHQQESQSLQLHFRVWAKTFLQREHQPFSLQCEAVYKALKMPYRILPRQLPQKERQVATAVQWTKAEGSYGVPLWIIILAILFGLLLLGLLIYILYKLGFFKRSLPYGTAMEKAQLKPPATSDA
UniProt P08648, sequence (P05556 21-798, chain 2 of 2, further chain): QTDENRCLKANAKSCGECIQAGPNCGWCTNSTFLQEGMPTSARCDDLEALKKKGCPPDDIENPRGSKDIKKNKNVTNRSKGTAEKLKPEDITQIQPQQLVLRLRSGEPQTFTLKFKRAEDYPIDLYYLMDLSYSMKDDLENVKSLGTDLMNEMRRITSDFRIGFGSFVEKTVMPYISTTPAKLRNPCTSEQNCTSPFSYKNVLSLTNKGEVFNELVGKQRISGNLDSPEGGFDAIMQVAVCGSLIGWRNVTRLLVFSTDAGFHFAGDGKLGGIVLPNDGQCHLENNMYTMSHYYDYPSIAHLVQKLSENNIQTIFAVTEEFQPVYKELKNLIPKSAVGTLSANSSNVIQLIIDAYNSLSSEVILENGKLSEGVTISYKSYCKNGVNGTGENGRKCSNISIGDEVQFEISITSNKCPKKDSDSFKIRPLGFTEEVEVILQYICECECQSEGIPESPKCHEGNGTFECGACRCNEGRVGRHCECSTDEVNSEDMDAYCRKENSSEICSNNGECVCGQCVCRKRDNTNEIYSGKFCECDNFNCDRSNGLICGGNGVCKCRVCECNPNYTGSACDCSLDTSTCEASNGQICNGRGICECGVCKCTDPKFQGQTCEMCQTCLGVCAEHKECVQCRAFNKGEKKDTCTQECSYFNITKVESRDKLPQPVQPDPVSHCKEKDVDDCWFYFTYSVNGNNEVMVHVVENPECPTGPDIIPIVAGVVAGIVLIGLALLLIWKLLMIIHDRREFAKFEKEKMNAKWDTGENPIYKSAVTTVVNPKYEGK

Substance: CagA (from UniProt P55980)
- Kd: 0.15 nM
